Laboratory results published in patent publication US20250381289A1 (Genmab, published 2025).

How the values were obtained:
[1] = molecular target: human HER2 recombinant protein (human, UniProt P04626 23-652); assay: ELISA, coated human HER2, anti-human Fc-HRP
Procedure: (§1) Binding specificity was tested by ELISA according to the standard protocol. Specifically, 96-well plates were coated with 100 ng/well human EGFR, human HER2, human HER3, human HER4, human cMET, human Sema3A recombinant protein in PBS, incubated overnight at 4° C. Plates were washed twice by TBS+0.05% Tween20. 200 μL blocking buffer (2% BSA in PBS) was added to each well and incubated at 37° C. for 2 h. After wash, Serial diluted antibodies were added to the ELISA plate with 100 μL per well and incubated for 1 h at room temperature. Then plates were washed for 3 times. HRP conjugated anti-human Fc antibody solution (Abcam, ab98624) was added to the plate with 100 μL per well. The plates were incubated at room temperature for 1 h and then washed for 3 times. […] Finally, read the absorbance at A₄₅₀ and A₆₃₀.

[2] = molecular target: T1, human HER4 recombinant protein (human, UniProt Q15303 26-649, limits assumed); assay: ELISA, coated human HER4, anti-human Fc-HRP
T1 sequence (looked up): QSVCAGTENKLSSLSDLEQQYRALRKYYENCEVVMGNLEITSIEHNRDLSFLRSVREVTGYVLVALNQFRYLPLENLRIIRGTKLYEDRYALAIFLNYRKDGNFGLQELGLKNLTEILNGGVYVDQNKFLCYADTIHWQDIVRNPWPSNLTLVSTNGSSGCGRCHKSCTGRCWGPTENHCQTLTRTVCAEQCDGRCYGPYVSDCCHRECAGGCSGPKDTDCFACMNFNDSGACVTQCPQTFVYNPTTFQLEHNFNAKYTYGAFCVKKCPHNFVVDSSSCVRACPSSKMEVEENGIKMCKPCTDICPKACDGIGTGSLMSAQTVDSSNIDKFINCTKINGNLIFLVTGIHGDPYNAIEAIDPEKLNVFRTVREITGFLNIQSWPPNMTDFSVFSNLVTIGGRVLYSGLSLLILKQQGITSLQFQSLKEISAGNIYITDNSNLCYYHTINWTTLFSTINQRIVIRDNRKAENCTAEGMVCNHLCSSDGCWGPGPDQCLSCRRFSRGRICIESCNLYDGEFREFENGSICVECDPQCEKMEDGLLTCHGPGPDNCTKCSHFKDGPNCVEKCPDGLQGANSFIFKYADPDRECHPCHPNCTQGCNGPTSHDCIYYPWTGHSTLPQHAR
Procedure: as §1

Human cMET = molecular target: T2, Human cMET (human); assay: ELISA, coated human cMET, anti-human Fc-HRP
T2 construct: recombinant protein; also called human cMET recombinant protein
Procedure: as §1

[3] = molecular target: T3, human Sema3A recombinant protein (human, UniProt Q14563 21-771, limits assumed); assay: ELISA, coated human Sema3A, anti-human Fc-HRP
T3 sequence (looked up): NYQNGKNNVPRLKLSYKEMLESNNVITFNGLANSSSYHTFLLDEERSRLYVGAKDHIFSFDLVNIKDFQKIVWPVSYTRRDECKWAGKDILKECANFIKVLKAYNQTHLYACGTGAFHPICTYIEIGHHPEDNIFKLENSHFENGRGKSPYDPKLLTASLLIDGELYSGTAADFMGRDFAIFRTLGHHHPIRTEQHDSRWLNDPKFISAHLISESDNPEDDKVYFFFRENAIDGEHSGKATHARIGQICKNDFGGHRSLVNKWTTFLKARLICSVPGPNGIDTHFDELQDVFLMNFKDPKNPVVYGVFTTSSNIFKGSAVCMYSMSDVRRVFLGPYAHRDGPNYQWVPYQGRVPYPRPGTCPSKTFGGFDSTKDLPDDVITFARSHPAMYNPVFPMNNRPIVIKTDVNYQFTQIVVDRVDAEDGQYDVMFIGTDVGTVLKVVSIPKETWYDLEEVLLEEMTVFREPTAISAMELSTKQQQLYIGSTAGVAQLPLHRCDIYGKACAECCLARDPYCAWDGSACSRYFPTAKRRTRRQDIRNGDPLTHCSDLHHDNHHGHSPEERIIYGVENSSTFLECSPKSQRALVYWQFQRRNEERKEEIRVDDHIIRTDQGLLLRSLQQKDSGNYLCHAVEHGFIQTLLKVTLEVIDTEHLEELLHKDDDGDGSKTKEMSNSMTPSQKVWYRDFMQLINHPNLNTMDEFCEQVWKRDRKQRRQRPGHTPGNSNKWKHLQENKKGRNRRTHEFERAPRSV
Procedure: as §1

[4] = molecular target: T4, EGFR on EGFR and cMET co-expressed tumor cell lines (UniProt P00533 25-1210, limits assumed); assay: flow cytometry, A431 cells (co-express EGFR and cMET; both arms contribute)
T4 construct: whole, on cells

[5] = molecular target: T5, cMET on EGFR and cMET co-expressed tumor cell lines (UniProt P08581 25-1390, limits assumed); assay: as above
T5 construct: whole, on cells

[6] = molecular target: T4, EGFR on EGFR and cMET co-expressed …; assay: flow cytometry, EBC-1 cells (co-express EGFR and cMET; both arms contribute)
[7] = molecular target: T5, cMET on EGFR and cMET co-expressed …; assay: as above
[8] = molecular target: T4, EGFR on EGFR and cMET co-expressed …; assay: flow cytometry, SNU-5 cells (co-express EGFR and cMET; both arms contribute)
[9] = molecular target: T5, cMET on EGFR and cMET co-expressed …; assay: as above

T5 sequence (P08581 25-1390 limits assumed): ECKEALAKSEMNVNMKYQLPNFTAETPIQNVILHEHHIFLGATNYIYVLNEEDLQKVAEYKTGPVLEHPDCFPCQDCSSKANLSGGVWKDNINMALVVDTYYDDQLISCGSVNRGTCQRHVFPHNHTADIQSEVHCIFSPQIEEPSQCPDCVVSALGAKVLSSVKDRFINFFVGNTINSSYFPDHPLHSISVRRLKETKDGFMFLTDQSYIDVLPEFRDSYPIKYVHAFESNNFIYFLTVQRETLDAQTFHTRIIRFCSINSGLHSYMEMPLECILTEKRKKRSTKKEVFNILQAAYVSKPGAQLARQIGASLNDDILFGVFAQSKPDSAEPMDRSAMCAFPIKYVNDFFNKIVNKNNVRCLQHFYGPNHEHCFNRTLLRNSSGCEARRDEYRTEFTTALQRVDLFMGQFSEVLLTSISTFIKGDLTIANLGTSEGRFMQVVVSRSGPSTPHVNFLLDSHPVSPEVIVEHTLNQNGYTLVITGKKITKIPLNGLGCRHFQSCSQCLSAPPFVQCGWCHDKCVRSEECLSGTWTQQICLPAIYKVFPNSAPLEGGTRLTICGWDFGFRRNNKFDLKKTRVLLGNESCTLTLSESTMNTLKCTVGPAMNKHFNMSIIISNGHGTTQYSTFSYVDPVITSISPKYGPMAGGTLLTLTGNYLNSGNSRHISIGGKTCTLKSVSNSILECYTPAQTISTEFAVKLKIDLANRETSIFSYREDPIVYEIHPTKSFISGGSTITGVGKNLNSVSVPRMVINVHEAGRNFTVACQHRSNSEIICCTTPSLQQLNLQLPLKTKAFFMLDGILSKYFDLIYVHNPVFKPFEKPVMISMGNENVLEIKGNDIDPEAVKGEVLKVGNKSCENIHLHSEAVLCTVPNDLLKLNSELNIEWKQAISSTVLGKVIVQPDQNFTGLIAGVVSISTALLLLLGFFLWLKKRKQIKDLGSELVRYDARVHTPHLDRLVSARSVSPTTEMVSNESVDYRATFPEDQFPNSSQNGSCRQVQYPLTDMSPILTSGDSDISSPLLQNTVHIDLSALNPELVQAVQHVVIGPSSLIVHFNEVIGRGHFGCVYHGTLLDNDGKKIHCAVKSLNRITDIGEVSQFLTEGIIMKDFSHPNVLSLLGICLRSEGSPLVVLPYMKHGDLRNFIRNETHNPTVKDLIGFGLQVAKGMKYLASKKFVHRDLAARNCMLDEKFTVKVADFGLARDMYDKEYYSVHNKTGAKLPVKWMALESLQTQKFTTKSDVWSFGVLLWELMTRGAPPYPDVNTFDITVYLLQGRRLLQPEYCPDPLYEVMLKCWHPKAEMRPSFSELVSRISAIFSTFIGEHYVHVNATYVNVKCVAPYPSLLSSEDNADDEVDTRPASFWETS
T2 sequence (P08581 whole entry): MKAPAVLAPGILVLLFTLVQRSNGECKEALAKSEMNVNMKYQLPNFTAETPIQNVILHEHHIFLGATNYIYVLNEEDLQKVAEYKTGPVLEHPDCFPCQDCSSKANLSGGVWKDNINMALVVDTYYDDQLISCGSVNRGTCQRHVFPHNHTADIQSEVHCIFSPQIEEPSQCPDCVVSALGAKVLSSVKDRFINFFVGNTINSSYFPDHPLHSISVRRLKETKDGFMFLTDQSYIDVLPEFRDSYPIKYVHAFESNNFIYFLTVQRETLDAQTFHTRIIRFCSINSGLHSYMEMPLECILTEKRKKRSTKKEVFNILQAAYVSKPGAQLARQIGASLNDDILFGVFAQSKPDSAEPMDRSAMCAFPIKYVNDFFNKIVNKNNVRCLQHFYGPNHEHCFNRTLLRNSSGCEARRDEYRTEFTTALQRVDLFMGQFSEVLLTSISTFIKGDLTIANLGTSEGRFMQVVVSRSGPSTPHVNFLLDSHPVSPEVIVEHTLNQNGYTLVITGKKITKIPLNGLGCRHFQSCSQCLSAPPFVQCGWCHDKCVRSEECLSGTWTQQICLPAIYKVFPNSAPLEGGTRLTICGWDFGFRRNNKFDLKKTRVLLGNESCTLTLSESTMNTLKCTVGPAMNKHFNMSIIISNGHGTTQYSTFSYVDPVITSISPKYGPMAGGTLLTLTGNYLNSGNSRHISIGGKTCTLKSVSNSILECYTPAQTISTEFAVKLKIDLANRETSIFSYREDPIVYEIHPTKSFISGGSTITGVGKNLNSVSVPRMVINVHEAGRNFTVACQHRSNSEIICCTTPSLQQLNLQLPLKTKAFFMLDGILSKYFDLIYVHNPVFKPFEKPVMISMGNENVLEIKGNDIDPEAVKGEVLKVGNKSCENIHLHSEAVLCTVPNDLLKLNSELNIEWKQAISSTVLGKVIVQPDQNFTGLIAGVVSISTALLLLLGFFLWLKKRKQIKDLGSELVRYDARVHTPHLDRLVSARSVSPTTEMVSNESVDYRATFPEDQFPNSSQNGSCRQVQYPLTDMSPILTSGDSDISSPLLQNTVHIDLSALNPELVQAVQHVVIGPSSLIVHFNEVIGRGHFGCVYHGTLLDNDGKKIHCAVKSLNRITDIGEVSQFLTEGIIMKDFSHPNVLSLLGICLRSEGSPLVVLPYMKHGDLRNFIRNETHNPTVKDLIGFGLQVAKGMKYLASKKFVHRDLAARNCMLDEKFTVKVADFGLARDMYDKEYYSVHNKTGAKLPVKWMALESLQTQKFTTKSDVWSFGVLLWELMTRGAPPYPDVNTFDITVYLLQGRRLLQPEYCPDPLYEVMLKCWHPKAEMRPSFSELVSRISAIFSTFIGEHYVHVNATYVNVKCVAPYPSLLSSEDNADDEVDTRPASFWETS

binding result [1]: no binding (tested: about 130 nM)
binding result [2]: no binding (tested: about 130 nM)
EC50 (read off the curve) (Human cMET): ~4 nM
binding result [3]: no binding (tested: about 120 nM)
EC50 (read off the curve) [4]: ~10 nM
EC50 (read off the curve) [5]: ~10 nM
EC50 (read off the curve) [6]: ~1 nM
EC50 (read off the curve) [7]: ~1 nM
EC50 (read off the curve) [8]: ~2 nM
EC50 (read off the curve) [9]: ~2 nM
B1: AZD9592-Ab (bispecific antibody, human IgG1, kappa, lambda)
anti EGFR heavy chain: QVQLVQSGAEVKKPGSSVKVSCKASGGTFSDNDFSWVRQAPGQGLEWMGAIVAVFRTETYAQKFQDRVKITADISTRTTYMELSSLRSEDTAVYYCARRLMSAISGPGAPLLMWGQGTLVTVSSASTKGPSVCPLAPSSKSTSGGTAALGCLVKDYFPEPVTVSWNSGALTSGVHTFPAVLQSSGLYSLSSVVTVPSSSLGTQTYICNVNHKPSNTKVDKRVEPKSVDKTHTCPPCPAPEFEGGPSVFLFPPKPKDTLMISRTPEVTCVVVDVSHEDPEVKFNWYVDGVEVHNAKTKPREEQYNSTYRVVSVLTVLHQDWLNGKEYKCKVSNKALPASIEKTISKAKGQPREPQVYTLPPCREEMTKNQVSLWCLVKGFYPSDIAVEWESNGQPENNYKTTPPVLDSDGSFFLYSKLTVDKSRWQQGNVFSCSVMHEALHNHYTQKSLSLSPGK
anti EGFR light chain: QSALTQPRSVSGSPGQSVTISCTGTSSDVGGYNYVSWYQQHPGKAPKLMIYDVSKRPSGVPDRFSGSKSGNTASLTISGLQAEDEADYYCSSYTSSDTLEIFGGGTKLTVLGQPKAAPSVTLFPPCSEELQANKATLVCLISDFYPGAVTVAWKADSSPVKAGVETTTPSKQSNNKYAASSYLSLTPEQWKSHRSYSCQVTHEGSTVEKTVAPTEVS
anti cMET heavy chain: QVQLVQSGAEVKKPGASVKVSCKASGYTFTDYYIHWVRQATGQGLEWMGWMNPNSGNTGYAQKFQGRVTMTRDTSISTAYMELSSLRSEDTAVYYCARGQGYTHSWGQGTMVTVSSASTKGPSVFPLAPSSKSTSGGTAALGCLVKDYFPEPVTVSWNSGALTSGVHTFPAVLQSSGLYSLSSVVTVPSSSLGTQTYICNVNHKPSNTKVDKRVEPKSCDKTHTCPPCPAPEFEGGPSVFLFPPKPKDTLMISRTPEVTCVVVDVSHEDPEVKFNWYVDGVEVHNAKTKPREEQYNSTYRVVSVLTVLHQDWLNGKEYKCKVSNKALPASIEKTISKAKGQPREPQVCTLPPSREEMTKNQVSLSCAVKGFYPSDIAVEWESNGQPENNYKTTPPVLDSDGSFFLVSKLTVDKSRWQQGNVFSCSVMHEALHNHYTQKSLSLSPGK
anti cMET light chain: DIQMTQSPSTLSASVGDRVTITCRASEGIYHWLAWYQQKPGKAPKLLIYKASSLASGVPSRFSGSGSGTEFTLTISSLQPDDFATYYCQQYSNYPPTFGGGTKLEIKRTVAAPSVFIFPPSDEQLKSGTASVVCLLNNFYPREAKVQWKVDNALQSGNSQESVTEQDSKDSTYSLSSTLTLSKADYEKHKVYACEVTHQGLSSPVTKSFNRGEC
notes: also called RAA22/B09-TM
